ChEMBL document CHEMBL1275444, “Fitness trade-offs in blaTEM evolution” (2008)

Substrate: CC1(C)S[C@@H]2[C@H](NC(=O)[C@H](N)c3ccccc3)C(=O)N2[C@H]1C(=O)O
Details: Escherichia coli
Description: Ratio of Kcat to Km for Escherichia coli Beta-Lactamase TEM-1

B1: Beta-lactamase TEM-1 (Escherichia coli), Q4GY26 (protein)
chain: MSIQHFRVALIPFFAAFCLPVFAHPETLVKVKDAEDQLGARVGYIELDLNSGKILESFRPEERFPMMSTFKVLLCGAVLSRVDAGQEQLGRRIHYSQNDLVEYSPVTEKHLTDGMTVRELCSAAITMSDNTAANLLLTTIGGPKELTAFLHNMGDHVTRLDRWEPELNEAIPNDERDTTMPAAMATTLRKLLTGELLTLASRQQLIDWMEADKVAGPLLRSALPAGWFIADKSGAGERGSRGIIAALGPDGKPSRIVVIYTTGSQATMD
- kcat/Km: 2.8 ×10⁷ /M/s
